Assay results taken from the supplement of paper PMC10567573.

B1: KLHL14 (parent)
chain: WLYCYDPVMDVWARKQDMNTKRAI

Variants of: B1
Assay: protein stability index of a GFP-peptide fusion (GPS, HEK-293T) (PSI 1-6); higher = more stable
Conditions: c terminus: a fixed tail appended
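Also: lentivirally expressed fusions sorted by FACS into six bins by GFP to DsRed ratio, PSI derived from sequencing read proportions per bin multiplied by bin number.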

Row | Variant | protein stability index
1 | WLYCEDPVMDVWARKQDMNTKRAI | 2.23
2 | WLYCHDPVMDVWARKQDMNTKRAI | 1.91
3 | WLYCGDPVMDVWARKQDMNTKRAI | 2.43
4 | WLYCVDPVMDVWARKQDMNTKRAI | 1.98
5 | WLYCQDPVMDVWARKQDMNTKRAI | 1.6
6 | WLYCDDPVMDVWARKQDMNTKRAI | 2.61
7 | WLYCNDPVMDVWARKQDMNTKRAI | 2.08
8 | WLYCFDPVMDVWARKQDMNTKRAI | 2.31
9 | WLYCIDPVMDVWARKQDMNTKRAI | 1.93
10 | WLYCADPVMDVWARKQDMNTKRAI | 1.92
11 | WLYCMDPVMDVWARKQDMNTKRAI | 1.92
12 | WLYCLDPVMDVWARKQDMNTKRAI | 2.24
13 | WLYCKDPVMDVWARKQDMNTKRAI | 2.46
14 | WLYCPDPVMDVWARKQDMNTKRAI | 2.9
15 | WLYCWDPVMDVWARKQDMNTKRAI | 1.44
16 | WLYCSDPVMDVWARKQDMNTKRAI | 2.46
17 | WLYCTDPVMDVWARKQDMNTKRAI | 1.83
18 | WLYCCDPVMDVWARKQDMNTKRAI | 2.25
19 | WLYCRDPVMDVWARKQDMNTKRAI | 2.26
20 | WLYCYDTVMDVWARKQDMNTKRAI | 1.64
21 | WLYCYDYVMDVWARKQDMNTKRAI | 2.15
22 | WLYCYDMVMDVWARKQDMNTKRAI | 1.98
23 | WLYCYDNVMDVWARKQDMNTKRAI | 1.84
24 | WLYCYDCVMDVWARKQDMNTKRAI | 2.33

Row | Variant | protein stability index
25 | WLYCYDAVMDVWARKQDMNTKRAI | 2.87
26 | WLYCYDSVMDVWARKQDMNTKRAI | 1.62
27 | WLYCYDKVMDVWARKQDMNTKRAI | 2.24
28 | WLYCYDRVMDVWARKQDMNTKRAI | 1.87
29 | WLYCYDQVMDVWARKQDMNTKRAI | 1.51
30 | WLYCYDDVMDVWARKQDMNTKRAI | 2.28
31 | WLYCYDIVMDVWARKQDMNTKRAI | 1.93
32 | WLYCYDGVMDVWARKQDMNTKRAI | 1.94
33 | WLYCYDHVMDVWARKQDMNTKRAI | 2.1
34 | WLYCYDVVMDVWARKQDMNTKRAI | 2.08
35 | WLYCYDFVMDVWARKQDMNTKRAI | 3.12
36 | WLYCYDEVMDVWARKQDMNTKRAI | 1.88
37 | WLYCYDPVMDVWAAKQDMNTKRAI | 1.85
38 | WLYCYDPVMDVWAEKQDMNTKRAI | 2.13
39 | WLYCYDPVMDVWAFKQDMNTKRAI | 1.57
40 | WLYCYDPVMDVWACKQDMNTKRAI | 1.75
41 | WLYCYDPVMDVWADKQDMNTKRAI | 2.11
42 | WLYCYDPVMDVFARKQDMNTKRAI | 1.86
43 | WLYCYDPVMDVCARKQDMNTKRAI | 2.09
44 | WLYCYDPVMDVSARKQDMNTKRAI | 1.5
45 | WLYCYDPVMDVNARKQDMNTKRAI | 2.2
46 | WLYCYDPVMDVTARKQDMNTKRAI | 2.11
47 | WLYCYDPVMDVPARKQDMNTKRAI | 1.76
48 | WLYCYDPVMDVHARKQDMNTKRAI | 2.04

Row | Variant | protein stability index
49 | WLYCYDPVMDVAARKQDMNTKRAI | 1.89
50 | WLYCYDPVMDVKARKQDMNTKRAI | 2.03
51 | WLYCYDPVMDVLARKQDMNTKRAI | 2.07
52 | WLYCYDPVMDVDARKQDMNTKRAI | 2.23
53 | WLYCYDPVMDVVARKQDMNTKRAI | 1.95
54 | WLYCYDPVMDVGARKQDMNTKRAI | 2.1
55 | WLYCYDPVMDVIARKQDMNTKRAI | 1.47
56 | WLYCYDPVMDVYARKQDMNTKRAI | 2.09
57 | WLYCYDPVMDVMARKQDMNTKRAI | 1.77
58 | WLYCYDPVMDVEARKQDMNTKRAI | 2.06
59 | WLYCYDPVMDVQARKQDMNTKRAI | 1.92
60 | WLYCYDPVMDVRARKQDMNTKRAI | 1.78
61 | WLYCYDPVMDHWARKQDMNTKRAI | 1.61
62 | WLYCYDPVMDKWARKQDMNTKRAI | 1.95
63 | WLYCYDPVMDFWARKQDMNTKRAI | 2.32
64 | WLYCYDPVMDDWARKQDMNTKRAI | 1.98
65 | WLYCYDPVMDQWARKQDMNTKRAI | 1.98
66 | WLYCYDPVMDPWARKQDMNTKRAI | 1.65
67 | WLYCYDPVMDGWARKQDMNTKRAI | 1.62
68 | WLYCYDPVMDEWARKQDMNTKRAI | 2.3
69 | WLYCYDPVMDYWARKQDMNTKRAI | 1.92
70 | WLYCYDPVMDIWARKQDMNTKRAI | 1.43
71 | WLYCYDPVMDRWARKQDMNTKRAI | 2.1
72 | WLYCYDPVMDAWARKQDMNTKRAI | 1.93

Row | Variant | protein stability index
73 | WLYCYDPVMDSWARKQDMNTKRAI | 2.52
74 | WLYCYDPVMDTWARKQDMNTKRAI | 2.32
75 | WLYCYDPVMDMWARKQDMNTKRAI | 1.61
76 | WLYCYDPVMDNWARKQDMNTKRAI | 2.21
77 | WLYCYDPVMDCWARKQDMNTKRAI | 1.91
78 | WLYCYDPVMDWWARKQDMNTKRAI | 1.76
79 | WLYCYDPVMDLWARKQDMNTKRAI | 2.04
80 | WLYCYNPVMDVWARKQDMNTKRAI | 1.78
81 | WLYCYGPVMDVWARKQDMNTKRAI | 2.9
82 | WLYCYPPVMDVWARKQDMNTKRAI | 1.84
83 | WLYCYKPVMDVWARKQDMNTKRAI | 2.11
84 | WLYCYTPVMDVWARKQDMNTKRAI | 2.47
85 | WLYCYFPVMDVWARKQDMNTKRAI | 2.99
86 | WLYCYEPVMDVWARKQDMNTKRAI | 1.74
87 | WLYCYRPVMDVWARKQDMNTKRAI | 1.4
88 | WLYCYVPVMDVWARKQDMNTKRAI | 2.23
89 | WLYCYSPVMDVWARKQDMNTKRAI | 1.7
90 | WLYCYHPVMDVWARKQDMNTKRAI | 2.6
91 | WLYCYAPVMDVWARKQDMNTKRAI | 3.01
92 | WLYCYMPVMDVWARKQDMNTKRAI | 2.33
93 | WLYCYWPVMDVWARKQDMNTKRAI | 3.19
94 | WLYCYQPVMDVWARKQDMNTKRAI | 2.29
95 | WLYCYCPVMDVWARKQDMNTKRAI | 2.14
96 | WLYCYYPVMDVWARKQDMNTKRAI | 2.54

Row | Variant | protein stability index
97 | WLYCYIPVMDVWARKQDMNTKRAI | 1.83
98 | WLYCYDPVMDVWSRKQDMNTKRAI | 2
99 | WLYCYDPVMDVWLRKQDMNTKRAI | 1.97
100 | WLYCYDPVMDVWMRKQDMNTKRAI | 1.96
101 | WLYCYDPVMDVWRRKQDMNTKRAI | 1.8
102 | WLYCYDPVMDVWHRKQDMNTKRAI | 2.67
103 | WLYCYDPVMDVWWRKQDMNTKRAI | 2.44
104 | WLYCYDPVMDVWKRKQDMNTKRAI | 2.52
105 | WLYCYDPVMDVWIRKQDMNTKRAI | 2.18
106 | WLYCYDPVMDVWERKQDMNTKRAI | 2.36
107 | WLYCYDPVMDVWFRKQDMNTKRAI | 1.57
108 | WLYCYDPVMDVWCRKQDMNTKRAI | 1.81
109 | WLYCYDPVMDVWNRKQDMNTKRAI | 2.46
110 | WLYCYDPVMDVWQRKQDMNTKRAI | 2.46
111 | WLYCYDPVMDVWDRKQDMNTKRAI | 2.84
112 | WLYCYDPVMDVWPRKQDMNTKRAI | 1.82
113 | WLYCYDPVMDVWVRKQDMNTKRAI | 2.13
114 | WLYCYDPVMDVWTRKQDMNTKRAI | 2.1
115 | WLYCYDPVMDVWGRKQDMNTKRAI | 1.97
116 | WLYCYDPVMDVWYRKQDMNTKRAI | 1.87
117 | WLYCYDPVMQVWARKQDMNTKRAI | 2.74
118 | WLYCYDPVMFVWARKQDMNTKRAI | 1.54
119 | WLYCYDPVMMVWARKQDMNTKRAI | 1.59
120 | WLYCYDPVMYVWARKQDMNTKRAI | 1.92

Row | Variant | protein stability index
121 | WLYCYDPVMCVWARKQDMNTKRAI | 1.91
122 | WLYCYDPVMEVWARKQDMNTKRAI | 2.19
123 | WLYCYDPVMAVWARKQDMNTKRAI | 1.88
124 | WLYCYDPVMKVWARKQDMNTKRAI | 3.09
125 | WLYCYDPVMTVWARKQDMNTKRAI | 1.69
126 | WLYCYDPVMGVWARKQDMNTKRAI | 2.77
127 | WLYCYDPVMNVWARKQDMNTKRAI | 2.1
128 | WLYCYDPVMVVWARKQDMNTKRAI | 1.52
129 | WLYCYDPVMPVWARKQDMNTKRAI | 1.72
130 | WLYCYDPVMSVWARKQDMNTKRAI | 1.99
131 | WLYCYDPVMHVWARKQDMNTKRAI | 2.11
132 | WLYCYDPVMIVWARKQDMNTKRAI | 1.8
133 | WLYCYDPVMRVWARKQDMNTKRAI | 2.34
134 | WLYCYDPVMLVWARKQDMNTKRAI | 2.82
135 | WLYCYDPVMWVWARKQDMNTKRAI | 2.71
136 | WLYCYDPVPDVWARKQDMNTKRAI | 2.32
137 | WLYCYDPVSDVWARKQDMNTKRAI | 2.26
138 | WLYCYDPVWDVWARKQDMNTKRAI | 1.64
139 | WLYCYDPVDDVWARKQDMNTKRAI | 1.92
140 | WLYCYDPVRDVWARKQDMNTKRAI | 2.09
141 | WLYCYDPVQDVWARKQDMNTKRAI | 2.6
142 | WLYCYDPVHDVWARKQDMNTKRAI | 2.24
143 | WLYCYDPVKDVWARKQDMNTKRAI | 2.02
144 | WLYCYDPVCDVWARKQDMNTKRAI | 2.35

Row | Variant | protein stability index
145 | WLYCYDPVADVWARKQDMNTKRAI | 2.62
146 | WLYCYDPVGDVWARKQDMNTKRAI | 1.77
147 | WLYCYDPVLDVWARKQDMNTKRAI | 2.17
148 | WLYCYDPVTDVWARKQDMNTKRAI | 2.55
149 | WLYCYDPVFDVWARKQDMNTKRAI | 1.62
150 | WLYCYDPVEDVWARKQDMNTKRAI | 1.74
151 | WLYCYDPVNDVWARKQDMNTKRAI | 2.18
152 | WLYCYDPVVDVWARKQDMNTKRAI | 1.65
153 | WLYCYDPVYDVWARKQDMNTKRAI | 2.01
154 | WLYCYDPVIDVWARKQDMNTKRAI | 1.9
155 | WLYCYDPGMDVWARKQDMNTKRAI | 1.58
156 | WLYCYDPHMDVWARKQDMNTKRAI | 2.34
157 | WLYCYDPFMDVWARKQDMNTKRAI | 2.18
158 | WLYCYDPQMDVWARKQDMNTKRAI | 1.78
159 | WLYCYDPAMDVWARKQDMNTKRAI | 1.76
160 | WLYCYDPMMDVWARKQDMNTKRAI | 2.26
161 | WLYCYDPLMDVWARKQDMNTKRAI | 2.25
162 | WLYCYDPRMDVWARKQDMNTKRAI | 1.92
163 | WLYCYDPIMDVWARKQDMNTKRAI | 2.03
164 | WLYCYDPPMDVWARKQDMNTKRAI | 1.8
165 | WLYCYDPCMDVWARKQDMNTKRAI | 1.81
166 | WLYCYDPSMDVWARKQDMNTKRAI | 1.89
167 | WLYCYDPTMDVWARKQDMNTKRAI | 2.45
168 | WLYCYDPWMDVWARKQDMNTKRAI | 1.95

Row | Variant | protein stability index
169 | WLYCYDPYMDVWARKQDMNTKRAI | 2.14
170 | WLYCYDPEMDVWARKQDMNTKRAI | 2.17
171 | WLYCYDPDMDVWARKQDMNTKRAI | 2.37
172 | WLYCYDPNMDVWARKQDMNTKRAI | 1.75
173 | WLYCYDPKMDVWARKQDMNTKRAI | 1.88
174 | WLYYYDPVMDVWARKQDMNTKRAI | 2.13
175 | WLYNYDPVMDVWARKQDMNTKRAI | 2.5
176 | WLYVYDPVMDVWARKQDMNTKRAI | 2.08
177 | WLYWYDPVMDVWARKQDMNTKRAI | 2.35
178 | WLYHYDPVMDVWARKQDMNTKRAI | 2.6
179 | WLYGYDPVMDVWARKQDMNTKRAI | 2.58
180 | WLYTYDPVMDVWARKQDMNTKRAI | 2.84
181 | WLYKYDPVMDVWARKQDMNTKRAI | 2.04
182 | WLYIYDPVMDVWARKQDMNTKRAI | 1.96
183 | WLYQYDPVMDVWARKQDMNTKRAI | 2.31
184 | WLYRYDPVMDVWARKQDMNTKRAI | 1.63
185 | WLYLYDPVMDVWARKQDMNTKRAI | 1.61
186 | WLYMYDPVMDVWARKQDMNTKRAI | 1.89
187 | WLYSYDPVMDVWARKQDMNTKRAI | 2.14
188 | WLYPYDPVMDVWARKQDMNTKRAI | 2.51
